Measured values reported in patent US20110301073.

Tests used:
[1] = tested on: R0-VP16 (no tandem repeats) (Xanthomonas sp. (engineered)); assay: cell_activity; conditions: no tandem repeats
[2] = tested on: nR23570S-dNC (17.5 repeats without N- and C-caps) (Xanthomonas sp. (engineered)); assay: cell_activity; conditions: mock 1.48; caps deleted
[3] = tested on: TALEN 101139 (synthetic (Xanthomonas TALE)); assay: cell_activity; conditions: paired with 101141
[4] = tested on: TALE13 C+11 FokI (Xanthomonas axonopodis); assay: cleavage_in_vitro; conditions: two sites, 12 bp spacer
[5] = tested on: TALE13 C+5 FokI (Xanthomonas axonopodis); assay: cleavage_in_vitro; conditions: two sites, 12 bp spacer
[6] = tested on: TALE13 C-2 FokI (Xanthomonas axonopodis); assay: cleavage_in_vitro; conditions: two sites, 12 bp spacer
[7] = tested on: TALE13 C+17 FokI (Xanthomonas axonopodis); assay: cleavage_in_vitro; conditions: two sites, 12 bp spacer
[8] = tested on: TALEN 101141 (HD half repeat) (synthetic (Xanthomonas TALE)); assay: cell_activity; conditions: paired with 101139
[9] = tested on: TALE test backbone, repeat 5 RVD KI (Xanthomonas sp. (engineered)); conditions: RVD KI
[10] = tested on: TALE test backbone, repeat 5 RVD QG (synthetic (Xanthomonas TALE)); conditions: ELISA
[11] = tested on: TALE test backbone, repeat 5 RVD SN (synthetic (Xanthomonas TALE)); conditions: ELISA
[12] = tested on: TALE test backbone, repeat 5 RVD KD (synthetic (Xanthomonas TALE)); conditions: ELISA
[13] = tested on: TALE test backbone, repeat 5 RVD IA (synthetic (Xanthomonas TALE)); conditions: ELISA
[14] = tested on: TALE test backbone, repeat 5 RVD NA (synthetic (Xanthomonas TALE)); conditions: ELISA
[15] = tested on: TALE test backbone, repeat 5 RVD TA (synthetic (Xanthomonas TALE)); conditions: ELISA
[16] = tested on: TALE test backbone, repeat 5 RVD IP (synthetic (Xanthomonas TALE)); conditions: ELISA
[17] = tested on: TALE test backbone, repeat 5 RVD PW (Xanthomonas sp. (engineered)); conditions: RVD PW; 0.00 on all four bases
[18] = tested on: TALE test backbone, repeat 5 RVD NS (synthetic (Xanthomonas TALE)); conditions: ELISA
[19] = tested on: TALE test backbone, repeat 5 RVD NG (Xanthomonas sp. (engineered)); conditions: RVD NG
[20] = tested on: TALE test backbone, repeat 5 RVD AT (synthetic (Xanthomonas TALE)); conditions: ELISA
[21] = tested on: TALE test backbone, repeat 5 RVD KG (synthetic (Xanthomonas TALE)); conditions: ELISA
[22] = tested on: TALE test backbone, repeat 5 RVD YG (synthetic (Xanthomonas TALE)); conditions: ELISA
[23] = tested on: TALE test backbone, repeat 5 RVD ND (synthetic (Xanthomonas TALE)); conditions: ELISA
[24] = tested on: TALE test backbone, repeat 5 RVD HD, standard framework (SEQ 333) (Xanthomonas sp. (engineered)); conditions: RVD HD
[25] = tested on: TALE test backbone, repeat 5 RVD HG (synthetic (Xanthomonas TALE)); conditions: ELISA
[26] = tested on: TALE test backbone, repeat 5 RVD RI (synthetic (Xanthomonas TALE)); conditions: ELISA
[27] = tested on: TALE test backbone, repeat 5 RVD QA (synthetic (Xanthomonas TALE)); conditions: ELISA
[28] = tested on: TALE test backbone, repeat 5 RVD DH (synthetic (Xanthomonas TALE)); conditions: ELISA
[29] = tested on: TALE test backbone, repeat 5 RVD KS (synthetic (Xanthomonas TALE)); conditions: ELISA
[30] = tested on: TALE test backbone, repeat 5 RVD DK (synthetic (Xanthomonas TALE)); conditions: ELISA
[31] = tested on: TALE test backbone, repeat 5 RVD AN (synthetic (Xanthomonas TALE)); conditions: ELISA
[32] = tested on: TALE test backbone, repeat 5 RVD RG (synthetic (Xanthomonas TALE)); conditions: ELISA
[33] = tested on: TALE test backbone, repeat 5 RVD VG (synthetic (Xanthomonas TALE)); conditions: ELISA
[34] = tested on: TALE test backbone, repeat 5 RVD HI (Xanthomonas sp. (engineered)); conditions: RVD HI
[35] = tested on: TALE test backbone, repeat 5 RVD TP (synthetic (Xanthomonas TALE)); conditions: ELISA
[36] = tested on: TALE test backbone, repeat 5 RVD SG (synthetic (Xanthomonas TALE)); conditions: ELISA
[37] = tested on: TALE test backbone, repeat 5 RVD IG (synthetic (Xanthomonas TALE)); conditions: ELISA
[38] = tested on: TALE test backbone, repeat 5 RVD GG (synthetic (Xanthomonas TALE)); conditions: ELISA
[39] = tested on: TALE test backbone, repeat 5 RVD RA (synthetic (Xanthomonas TALE)); conditions: ELISA
[40] = tested on: TALE test backbone, repeat 5 RVD KT (synthetic (Xanthomonas TALE)); conditions: ELISA
[41] = tested on: TALE test backbone, repeat 5 RVD NI (Xanthomonas sp. (engineered)); conditions: RVD NI
[42] = tested on: TALE test backbone, repeat 5 RVD AD (synthetic (Xanthomonas TALE)); conditions: ELISA
[43] = tested on: TALE test backbone, repeat 5 RVD HA (synthetic (Xanthomonas TALE)); conditions: ELISA
[44] = tested on: TALE test backbone, repeat 5 RVD LA (synthetic (Xanthomonas TALE)); conditions: ELISA
[45] = tested on: TALE test backbone, repeat 5 RVD HN (synthetic (Xanthomonas TALE)); conditions: ELISA
[46] = tested on: TALE test backbone, repeat 5 RVD AA (synthetic (Xanthomonas TALE)); conditions: ELISA
[47] = tested on: TALE test backbone, repeat 5 RVD AE (synthetic (Xanthomonas TALE)); conditions: ELISA
[48] = tested on: TALE test backbone, repeat 5 RVD NN (Xanthomonas sp. (engineered)); conditions: RVD NN
[49] = tested on: TALE test backbone, repeat 5 RVD HI (synthetic (Xanthomonas TALE)); conditions: ELISA
[50] = tested on: TALE test backbone, repeat 5 RVD KI (synthetic (Xanthomonas TALE)); conditions: ELISA
[51] = tested on: TALE test backbone, repeat 5 RVD KN (Xanthomonas sp. (engineered)); conditions: RVD KN
[52] = tested on: TALE test backbone, repeat 5 RVD NK (Xanthomonas sp. (engineered)); conditions: RVD NK; other bases 0.00
[53] = tested on: TALE test backbone, repeat 5 RVD AK (Xanthomonas sp. (engineered)); conditions: RVD AK; other bases 0.00-0.01
[54] = tested on: TALE test backbone, repeat 5 RVD DH (Xanthomonas sp. (engineered)); conditions: RVD DH
[55] = tested on: TALE test backbone, repeat 5 RVD SN (Xanthomonas sp. (engineered)); conditions: RVD SN
[56] = tested on: TALE test backbone, repeat 5 RVD VG (Xanthomonas sp. (engineered)); conditions: RVD VG
[57] = tested on: TALE test backbone, repeat 5 RVD IA (Xanthomonas sp. (engineered)); conditions: RVD IA
[58] = tested on: TALE test backbone, repeat 5 RVD TP (Xanthomonas sp. (engineered)); conditions: RVD TP

Sequence: GGAGCCATCTGGCCGGGT (double strand) [NT-L target (NTF3 promoter)]
- activity (fold activation) [1]: 1
- activity (fold activation) [2]: 1.96

Sequence: GGGCTCTCCCATGCAT (double strand) [101139 site]
- activity [3]: 6.7 % NHEJ

Sequence: TATAAATACCTTCT (double strand) [TALE13 target]
- activity [4]: 98.5 % cleavage
- activity [5]: 99.3 % cleavage
- activity [6]: 1.1 % cleavage
- activity [7]: 97.8 % cleavage

Sequence: TCCTAGAAGGGCAGGC (double strand) [101141 site]
- activity [8]: 6.7 % NHEJ

Sequence: TTGACAATCCT (double strand) [CAA target]
- binding signal (normalized ELISA) [9]: 0.75
- binding signal (normalized ELISA) [10]: 0.21
- binding signal (normalized ELISA) [11]: 0.43
- binding signal (normalized ELISA) [12]: 0.06
- binding signal (normalized ELISA) [13]: 0.15
- binding signal (normalized ELISA) [14]: 0.59
- binding signal (normalized ELISA) [15]: 0.15
- binding signal (normalized ELISA) [16]: 0.04
- binding signal (normalized ELISA) [17]: 0
- binding signal (normalized ELISA) [18]: 0.51
- binding signal (normalized ELISA) [19]: 0.48
- binding signal (normalized ELISA) [20]: 1.29
- binding signal (normalized ELISA) [21]: 0.47
- binding signal (normalized ELISA) [22]: 0.12
- binding signal (normalized ELISA) [23]: 0.06
- binding signal (normalized ELISA) [24]: 0.15
- binding signal (normalized ELISA) [25]: 0.38
- binding signal (normalized ELISA) [26]: 0.65
- binding signal (normalized ELISA) [27]: 0.2
- binding signal (normalized ELISA) [28]: 0.01
- binding signal (normalized ELISA) [29]: 0.95
- binding signal (normalized ELISA) [30]: 0
- binding signal (normalized ELISA) [31]: 0.51
- binding signal (normalized ELISA) [32]: 0.32
- binding signal (normalized ELISA) [33]: 0.05
- binding signal (normalized ELISA) [34]: 0.67
- binding signal (normalized ELISA) [35]: 0.16
- binding signal (normalized ELISA) [36]: 0.36
- binding signal (normalized ELISA) [37]: 0.04
- binding signal (normalized ELISA) [38]: 0.49
- binding signal (normalized ELISA) [39]: 0.73
- binding signal (normalized ELISA) [40]: 1
- binding signal (normalized ELISA) [41]: 0.6
- binding signal (normalized ELISA) [42]: 0.02
- binding signal (normalized ELISA) [43]: 0.46
- binding signal (normalized ELISA) [44]: 0.02
- binding signal (normalized ELISA) [45]: 0.5
- binding signal (normalized ELISA) [46]: 0.34
- binding signal (normalized ELISA) [47]: 0
- binding signal (normalized ELISA) [48]: 0.47

Sequence: TTGACGATCCT (double strand) [CGA target]
- binding signal (normalized ELISA) [10]: 0.05
- binding signal (normalized ELISA) [12]: 0
- binding signal (normalized ELISA) [13]: 0.02
- binding signal (normalized ELISA) [49]: 0.04
- binding signal (normalized ELISA) [14]: 0.41
- binding signal (normalized ELISA) [50]: 0.02
- binding signal (normalized ELISA) [15]: 0.01
- binding signal (normalized ELISA) [16]: 0
- binding signal (normalized ELISA) [18]: 0.71
- binding signal (normalized ELISA) [20]: 0.76
- binding signal (normalized ELISA) [21]: 0.2
- binding signal (normalized ELISA) [22]: 0.01
- binding signal (normalized ELISA) [23]: 0
- binding signal (normalized ELISA) [24]: 0
- binding signal (normalized ELISA) [51]: 1
- binding signal (normalized ELISA) [25]: 0.11
- binding signal (normalized ELISA) [26]: 0.02
- binding signal (normalized ELISA) [52]: 0.15
- binding signal (normalized ELISA) [27]: 0.03
- binding signal (normalized ELISA) [29]: 0.74
- binding signal (normalized ELISA) [53]: 0.21
- binding signal (normalized ELISA) [30]: 0.15
- binding signal (normalized ELISA) [31]: 0.87
- binding signal (normalized ELISA) [32]: 0.12
- binding signal (normalized ELISA) [33]: 0.01
- binding signal (normalized ELISA) [54]: 0.36
- binding signal (normalized ELISA) [35]: 0.01
- binding signal (normalized ELISA) [55]: 0.92
- binding signal (normalized ELISA) [36]: 0.2
- binding signal (normalized ELISA) [37]: 0.01
- binding signal (normalized ELISA) [38]: 0.25
- binding signal (normalized ELISA) [39]: 0.53
- binding signal (normalized ELISA) [40]: 0.83
- binding signal (normalized ELISA) [41]: 0.02
- binding signal (normalized ELISA) [42]: 0
- binding signal (normalized ELISA) [43]: 0.24
- binding signal (normalized ELISA) [44]: 0
- binding signal (normalized ELISA) [45]: 0.86
- binding signal (normalized ELISA) [46]: 0.06
- binding signal (normalized ELISA) [47]: 0
- binding signal (normalized ELISA) [48]: 0.81

Sequence: TTGACTATCCT (double strand) [CTA target]
- binding signal (normalized ELISA) [56]: 0.56
- binding signal (normalized ELISA) [10]: 1.09
- binding signal (normalized ELISA) [11]: 0.02
- binding signal (normalized ELISA) [12]: 0.05
- binding signal (normalized ELISA) [49]: 0.04
- binding signal (normalized ELISA) [14]: 1.72
- binding signal (normalized ELISA) [50]: 0.04
- binding signal (normalized ELISA) [15]: 0.76
- binding signal (normalized ELISA) [16]: 0.84
- binding signal (normalized ELISA) [18]: 0.54
- binding signal (normalized ELISA) [19]: 1.3
- binding signal (normalized ELISA) [20]: 0.56
- binding signal (normalized ELISA) [21]: 1.29
- binding signal (normalized ELISA) [22]: 0.79
- binding signal (normalized ELISA) [23]: 0.02
- binding signal (normalized ELISA) [24]: 0.09
- binding signal (normalized ELISA) [57]: 1.2
- binding signal (normalized ELISA) [25]: 1.49
- binding signal (normalized ELISA) [26]: 0.02
- binding signal (normalized ELISA) [27]: 1.24
- binding signal (normalized ELISA) [28]: 0.03
- binding signal (normalized ELISA) [29]: 0.81
- binding signal (normalized ELISA) [30]: 0
- binding signal (normalized ELISA) [31]: 0.01
- binding signal (normalized ELISA) [32]: 0.87
- binding signal (normalized ELISA) [36]: 1.23
- binding signal (normalized ELISA) [37]: 0.68
- binding signal (normalized ELISA) [38]: 1.52
- binding signal (normalized ELISA) [39]: 1.64
- binding signal (normalized ELISA) [40]: 0.67
- binding signal (normalized ELISA) [41]: 0.02
- binding signal (normalized ELISA) [42]: 0.01
- binding signal (normalized ELISA) [43]: 1.54
- binding signal (normalized ELISA) [44]: 0.51
- binding signal (normalized ELISA) [45]: 0.01
- binding signal (normalized ELISA) [46]: 0.61
- binding signal (normalized ELISA) [47]: 0
- binding signal (normalized ELISA) [58]: 1.2
